Data from PMC6327479.

Test system: T1, HicB-6His (Sinorhizobium meliloti), ORF:5e3b9e2c
T1 sequence: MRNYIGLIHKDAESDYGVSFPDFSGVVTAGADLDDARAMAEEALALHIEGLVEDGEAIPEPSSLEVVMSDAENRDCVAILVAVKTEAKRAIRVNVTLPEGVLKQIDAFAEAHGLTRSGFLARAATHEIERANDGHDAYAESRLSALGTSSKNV
Assay: EMSA
Conditions: EMSA: 10 mM Tris-HCl pH 7.5, 50 mM NaCl, 1 mM DTT, 300 ug/ml BSA, 20 ul, 30 min at 25 C; 5% native PAGE in TAE pH 7.5

**Q.** For “GATCCGACGGTTCGAGACCATCCGAGAAAGCCGCCTTAGATTGGCTTGACAAATTCATTGGACGAATACACATGCGTGTGTATTGTCGTATCAGATGAAGAGCGGCGACATTATTGCAGCATTGCAGAAGGACGGATGGTACGAGGTTGCGACCAAGGGCAGCCACGTTCAATTCAAACATCCGAAAAAGCACGGCCGGGTTACCGTTCCTCACCCGAAGA (double strand) [hicAB promoter fragment]”, which binding is on record?
**A.** binds
